Laboratory results taken from paper PMC12607393.

How the values were obtained:
[1] = molecular target: Galactia lindenii Type I lectin (GLL-I) (Galactia lindenii); assay: SDS-PAGE of unheated sample; purified GLL-I (15 ug per lane) in SDS without heating, with or without DTT; Coomassie staining
[2] = molecular target: Galactia lindenii Type I lectin (GLL-I) (Galactia lindenii); assay: SDS-PAGE of heated sample; purified GLL-I (15 ug per lane) in SDS + DTT with heating (reducing conditions); Coomassie staining

- stoichiometry N [1]: 4
- stoichiometry N [2]: 2
Substance: Galactia lindenii Type I lectin (GLL-I) (natural protein)
